*1 amine or outer side, *2 acyl side, *3 side chain or, on linkers, in order; H or OH if unused. Bridges are numbered along the chain shown (N, C = ends). Primed or numbered codes have the meaning given here. Where no end group is shown, it is not given here. Side-chain parts run from the residue outwards. [ ]: non-standard residue; d: D form. The star is where a group is joined. EuDOTA = DOTA europium complex, O=C([O-])CN1CCN(CC(=O)[O-])CCN(CC(=O)*)CCN(CC(=O)[O-])CC1.[Eu+3]; Ttds = 1,13-diamino-4,7,10-trioxatridecan-succinamic acid, NCCCOCCOCCOCCCNC(=O)CCC(=O)*; DOTA(In) = O=C1CN2CCN3CCN(CC(=O)*)CCN(CC2)CC(=O)[O][In]([O]1)[O]C(=O)C3; NH(1-deoxy-D-glucityl) = OC[C@@H](O)[C@@H](O)[C@H](O)[C@@H](O)CN*; (dE)(AGLU) = D-glutamic acid bearing 1-amino-1-deoxy-D-glucitol; APAc″ = 4-amino-1-carboxymethylpiperidine, NC1CCN(CC(=O)*)CC1; dE(AGLU) = D-glutamic acid bearing 1-amino-1-deoxy-D-glucitol; Ttds(4) = 1,13-diamino-4,7,10-trioxatridecan-succinamic acid; Pro(trans-4-NH2) = O=C([C@@H]1C[C@@H](N[*:3])CN1[*:1])[*:2]; DOTA = O=C(O)CN1CCN(CC(=O)O)CCN(CC(=O)*)CCN(CC(=O)O)CC1; 2Lut = 2,6-lutidylidene bridge between two thiols; Trp(5-Cl) = N[C@@H](Cc1c[nH]c2ccc(Cl)cc12)C(=O)O; Pyridine(2,6-diCH2) = c1cc(C[*:1])nc(C[*:2])c1; Trp(5-F) = N[C@@H](Cc1c[nH]c2ccc(F)cc12)C(=O)O; Trp(6-F) = N[C@@H](Cc1c[nH]c2cc(F)ccc12)C(=O)O; APAc = 4-amino-1-carboxymethylpiperidine; 1Nal = N[C@@H](Cc1cccc2ccccc12)C(=O)O; mXylylene = c1cc(C[*:1])cc(C[*:2])c1; LuDOTA = DOTA Lutetium(III) complex; Glutaryl = O=C(CCCC(=O)[*:2])[*:1]; AGLU = 1-amino-1-deoxy-D-glucitol; Hyp = O=C(O)[C@@H]1C[C@@H](O)CN1; Cysteamide = C(CS[*:3])N[*:1]; dGlu(AGLU) = not defined here; Suc = O=C(CCC(=O)[*:2])[*:1]; 2Lut(3) = 2,6-lutidylidene; Ac6c = NC1(C(=O)O)CCCCC1; 3Lut = 3,5-lutidylidene; Api = NC1(C(=O)O)CCNCC1; Thp = NC1(C(=O)O)CCOCC1; Dap = NC[C@H](N)C(=O)O; Aib = CC(C)(N)C(=O)O
biological target: human Gastric Inhibitory Peptide Receptor (human) (UniProt P48546); test: FACS competition with GIP-057 on CHO-K1-hGIPR cells; pIC50 category A: >8.0
Sequence (P48546 22-466 limits assumed): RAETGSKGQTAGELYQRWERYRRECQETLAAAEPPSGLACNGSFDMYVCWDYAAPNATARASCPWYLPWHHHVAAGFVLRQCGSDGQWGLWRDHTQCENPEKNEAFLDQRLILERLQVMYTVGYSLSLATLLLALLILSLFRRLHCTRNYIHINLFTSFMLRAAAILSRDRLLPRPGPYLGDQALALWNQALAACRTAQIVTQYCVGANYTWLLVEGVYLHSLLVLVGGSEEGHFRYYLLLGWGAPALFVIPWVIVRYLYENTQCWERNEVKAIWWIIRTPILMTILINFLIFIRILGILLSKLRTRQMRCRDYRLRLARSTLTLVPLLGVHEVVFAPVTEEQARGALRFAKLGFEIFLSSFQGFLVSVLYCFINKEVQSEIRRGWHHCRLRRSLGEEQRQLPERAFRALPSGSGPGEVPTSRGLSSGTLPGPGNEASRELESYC

Binder	pIC50 [pic50]
{DOTA-Ttds}-DW[Trp(5-Cl)][Hyp]E[dL]C[Thp]LICK(DOTA)-NH2 (linker 7-11 via 2Lut(3)) [DOTA-Ttds-Asp-Trp-5Clw-Hyp-Glu-leu-[Cys(2Lut)-Thp-Leu-Ile-Cys]-Lys(DOTA)-NH2]	> 8
{DOTA(In)-dE(AGLU)-APAc}-DW[Trp(5-Cl)][Hyp]E[dL]C[Thp]LIC-{APAc-dE(AGLU)-NH2} (linker 7-11 via Pyridine(2,6-diCH2)) [InDOTA-glu(AGLU)-APAc-Asp-Trp-5Clw-Hyp-Glu-leu-[Cys(2Lut)-Thp-Leu-Ile-Cys]-APAc-glu(AGLU)-NH2]	> 8
Suc-W[Trp(5-Cl)][Hyp]E[dL]C[Api]([Glutaryl-NH(1-deoxy-D-glucityl)])LIC-{APAc-Lys(DOTA)-NH2} (linker 6-10 via Pyridine(2,6-diCH2)) [HO-Succinyl-Trp-5Clw-Hyp-Glu-leu-[Cys(2Lut)-Apc(AGLU-Glutar)-Leu-Ile-Cys]-APAc-Lys(DOTA)-NH2]	> 8
{AGLU-Glutaryl-APAc}-DW[Trp(5-Cl)][Pro(trans-4-NH2)]E[dL]C[Api]LIC-{APAc-dE(AGLU)-NH2} (linker 7-11 via Pyridine(2,6-diCH2); not fully specified (residue 8); also: DOTA complexed with Ga (GaDOTA))	> 8
{DOTA-Ttds}-DW[Trp(5-Cl)]PE[dL]C[Aib]LI[Cysteamide] (linker (positions not given here) via 2Lut(3); not fully specified (bridges); printed as DOTA-Ttds-Asp-Trp-5Clw-Pro-Glu-leu-[Cys(2Lut)-Aib-Leu-Ile-AET]) [DOTA-Ttds-Asp-Trp-5Clw-Pro-Glu-leu-[Cys(2Lut)-Aib-Leu-Ile-AET]]	> 8
{DOTA-dE(AGLU)}-DW[Trp(5-Cl)][Hyp]E[dL]C[Thp]LIC-{APAc-dE(AGLU)-NH2} (linker 7-11 via Pyridine(2,6-diCH2)) [DOTA-glu(AGLU)-Asp-Trp-5Clw-Hyp-Glu-leu-[Cys(2Lut)-Thp-Leu-Ile-Cys]-APAc-glu(AGLU)-NH2]	> 8
{DOTA-Ttds}-DW[Trp(5-Cl)][Pro(trans-4-NH2)](DOTA)E[dL]C[Api](DOTA)LICK(DOTA)-NH2 (linker 7-11 via Pyridine(2,6-diCH2)) [DOTA-Ttds-Asp-Trp-5Clw-Tap(DOTA)-Glu-leu-[Cys(2Lut)-Apc(DOTA)-Leu-Ile-Cys]-Lys(DOTA)-NH2]	> 8
{DOTA-dE(AGLU)}-DW[Trp(5-Cl)][Pro(trans-4-NH2)]E[dL]C[Api]([Glutaryl-NH(1-deoxy-D-glucityl)])LIC-{APAc-dE(AGLU)-NH2} (linker 7-11 via Pyridine(2,6-diCH2)) [DOTA-glu(AGLU)-Asp-Trp-5Clw-Tap-Glu-leu-[Cys(2Lut)-Apc(AGLU-Glutar)-Leu-Ile-Cys]-APAc-glu(AGLU)-NH2]	> 8
{AGLU-Glutaryl-APAc}-DW[Trp(5-Cl)][Pro(trans-4-NH2)]E[dL]C[Api]LIC-{APAc-dE(AGLU)-NH2} (linker 7-11 via Pyridine(2,6-diCH2); not fully specified (residue 8); also: DOTA complexed with In (InDOTA))	> 8
{LuDOTA-dE(AGLU)-APAc}-DW[Trp(5-Cl)][Hyp]E[dL]C[Thp]LIC-{APAc-dE(AGLU)-NH2} (linker 7-11 via Pyridine(2,6-diCH2)) [LuDOTA-glu(AGLU)-APAc-Asp-Trp-5Clw-Hyp-Glu-leu-[Cys(2Lut)-Thp-Leu-Ile-Cys]-APAc-glu(AGLU)-NH2]	> 8
{DOTA-Ttds}-DW[Trp(5-Cl)][Hyp]E[dL]C[Api](DOTA)LICK(DOTA)-NH2 (linker 7-11 via 2Lut(3)) [DOTA-Ttds-Asp-Trp-5Clw-Hyp-Glu-leu-[Cys(2Lut)-Apc(DOTA)-Leu-Ile-Cys]-Lys(DOTA)-NH2]	> 8
DW[Trp(5-Cl)][Pro(trans-4-NH2)]E[dL]C[Api]([Glutaryl-NH(1-deoxy-D-glucityl)])LIC-{APAc-(dE)(AGLU)-NH2} (linker 7-11 via Pyridine(2,6-diCH2); not fully specified (N-terminus); printed as DOTA-O2Oc-glu(AGLU)-Asp-Trp-5Clw-Tap-Glu-leu-[Cys(2Lut)-Apc(AGLU-Glutar)-Leu-Ile-Cys]-APAc-glu(AGLU)-NH2)	> 8
{DOTA-dE(AGLU)-APAc}-DW[Trp(5-Cl)][Hyp]E[dL]C[Api]([Glutaryl-NH(1-deoxy-D-glucityl)])LIC-{APAc-dE(AGLU)-NH2} (linker 7-11 via Pyridine(2,6-diCH2))	> 8
DWXXEXCXLIC (N-term AGLU-Glutar; 5Clw; Hyp; leu (D-Leu); thioether cycle [Cys(2Lut)..Cys]; Apc(GaDOTA); C-term APAc-glu(AGLU)-NH2) [AGLU-Glutar-Asp-Trp-5Clw-Hyp-Glu-leu-[Cys(2Lut)-Apc(GaDOTA)-Leu-Ile-Cys]-APAc-glu(AGLU)-NH2]	> 8
{AGLU-Glutaryl-APAc}-DW[Trp(5-Cl)][Pro(trans-4-NH2)]E[dL]C[Api]LIC-{APAc-dE(AGLU)-NH2} (linker 7-11 via Pyridine(2,6-diCH2); not fully specified (residue 8); also: DOTA complexed with Lu (LuDOTA))	> 8
{AGLU-Glutaryl}-DW[Trp(5-Cl)][Pro(trans-4-NH2)]E[dL]C[Api](GaNODAGA)LIC-{APAc-dE(AGLU)-NH2} (linker 7-11 via Pyridine(2,6-diCH2)) [AGLU-Glutar-Asp-Trp-5Clw-Tap-Glu-leu-[Cys(2Lut)-Apc(GaNODAGA)-Leu-Ile-Cys]-APAc-glu(AGLU)-NH2]	> 8
{AGLU-Glutaryl-APAc}-DW[Trp(5-Cl)][Hyp]E[dL]C[Api]LIC-{APAc-dE(AGLU)-NH2} (linker 7-11 via Pyridine(2,6-diCH2); not fully specified (residue 8))	> 8
DW[Trp(5-Cl)][Pro(trans-4-NH2)]E[dL]C[Thp]LIC-{APAc-(dE)(AGLU)-NH2} (linker 7-11 via Pyridine(2,6-diCH2); not fully specified (N-terminus); printed as DOTA-PEG6-glu(AGLU)-Asp-Trp-5Clw-Tap-Glu-leu-[Cys(2Lut)-Thp-Leu-Ile-Cys]-APAc-glu(AGLU)-NH2) [DOTA-PEG6-glu(AGLU)-Asp-Trp-5Clw-Tap-Glu-leu-[Cys(2Lut)-Thp-Leu-Ile-Cys]-APAc-glu(AGLU)-NH2]	> 8
{EuDOTA-dGlu(AGLU)-APAc}-DW[Trp(5-Cl)][Hyp]E[dL]C[Thp]LIC-{APAc-dGlu(AGLU)-NH2} (linker 7-11 via 2Lut; reading uncertain; also: Eu complex of DOTA) [EuDOTA-glu(AGLU)-APAc-Asp-Trp-5Clw-Hyp-Glu-leu-[Cys(2Lut)-Thp-Leu-Ile-Cys]-APAc-glu(AGLU)-NH2]	> 8
{AGLU-Glutaryl}-DW[Trp(5-Cl)][Pro(trans-4-NH2)]E[dL]C[Api](DOTA)LI[dC]-{APAc-dE(AGLU)-NH2} (linker 7-11 via Pyridine(2,6-diCH2)) [AGLU-Glutar-Asp-Trp-5Clw-Tap-Glu-leu-[Cys(2Lut)-Apc(DOTA)-Leu-Ile-cys]-APAc-glu(AGLU)-NH2]	> 8

Further lines, results first:

pIC50 [pic50]	Binder
> 8	{DOTA-Ttds}-DW[Trp(5-Cl)]PE[dL]C[Thp]LI[Cysteamide] (linker (positions not given here) via mXylylene; not fully specified (bridges); printed as DOTA-Ttds-Asp-Trp-5Clw-Pro-Glu-leu-[Cys(3MeBn)-Thp-Leu-Ile-AET]) [DOTA-Ttds-Asp-Trp-5Clw-Pro-Glu-leu-[Cys(3MeBn)-Thp-Leu-Ile-AET]]
> 8	{DOTA-Ttds}-DW[Trp(5-Cl)]PE[dL][Dap][Aib]LI[Cysteamide] (linker (positions not given here) via mXylylene; not fully specified (bridges); printed as DOTA-Ttds-Asp-Trp-5Clw-Pro-Glu-leu-[Dap(3MeBn)-Aib-Leu-Ile-AET]) [DOTA-Ttds-Asp-Trp-5Clw-Pro-Glu-leu-[Dap(3MeBn)-Aib-Leu-Ile-AET]]
> 8	{DOTA-Ttds}-DW[Trp(5-Cl)]PE[dL]C[Api]LI[Cysteamide] (linker (positions not given here) via mXylylene; not fully specified (bridges); printed as DOTA-Ttds-Asp-Trp-5Clw-Pro-Glu-leu-[Cys(3MeBn)-Apc-Leu-Ile-AET]) [DOTA-Ttds-Asp-Trp-5Clw-Pro-Glu-leu-[Cys(3MeBn)-Apc-Leu-Ile-AET]]
> 8	Ac-D[Trp(5-F)][1Nal]PE[dL]C[Aib]LIC-{Ttds(4)-K(DOTA)-NH2} (linker 7-11 via mXylylene) [Ac-Asp-5Fw-1Ni-Pro-Glu-leu-[Cys(3MeBn)-Aib-Leu-Ile-Cys]-Ttds-Lys(DOTA)-NH2]
> 8	{DOTA-APAc″}-DW[Trp(5-Cl)]PE[dL]C[Aib]LI[Cysteamide] (linker 7-11 via mXylylene) [DOTA-APAc-Asp-Trp-5Clw-Pro-Glu-leu-[Cys(3MeBn)-Aib-Leu-Ile-AET]]
> 8	DWXPEXCXLI (N-term DOTA-Ttds; 5Clw; leu (D-Leu); cycle [Cys(3MeBn)..en]; Aib) [DOTA-Ttds-Asp-Trp-5Clw-Pro-Glu-leu-[Cys(3MeBn)-Aib-Leu-Ile-en]]
> 8	{DOTA-Ttds}-DW[Trp(5-Cl)]PE[dL]C[Ac6c]LI[Cysteamide] (linker (positions not given here) via mXylylene; not fully specified (bridges); printed as DOTA-Ttds-Asp-Trp-5Clw-Pro-Glu-leu-[Cys(3MeBn)-Egz-Leu-Ile-AET]) [DOTA-Ttds-Asp-Trp-5Clw-Pro-Glu-leu-[Cys(3MeBn)-Egz-Leu-Ile-AET]]
> 8	Ac-D[Trp(6-F)][1Nal]PE[dL]C[Aib]LIC-{Ttds(4)-K(DOTA)-NH2} (linker 7-11 via mXylylene) [Ac-Asp-6Fw-1Ni-Pro-Glu-leu-[Cys(3MeBn)-Aib-Leu-Ile-Cys]-Ttds-Lys(DOTA)-NH2]
> 8	{DOTA-Ttds}-DW[Trp(5-Cl)]PE[dL]C[Aib]LI[Cysteamide] (linker (positions not given here) via 3Lut; not fully specified (bridges); printed as DOTA-Ttds-Asp-Trp-5Clw-Pro-Glu-leu-[Cys(3Lut)-Aib-Leu-Ile-AET]) [DOTA-Ttds-Asp-Trp-5Clw-Pro-Glu-leu-[Cys(3Lut)-Aib-Leu-Ile-AET]]
> 8	{DOTA-Ttds}-DW[Trp(5-Cl)]PE[dL]C[Api](DOTA)LI[Cysteamide] (linker (positions not given here) via mXylylene; not fully specified (bridges); printed as DOTA-Ttds-Asp-Trp-5Clw-Pro-Glu-leu-[Cys(3MeBn)-Apc(DOTA)-Leu-Ile-AET]) [DOTA-Ttds-Asp-Trp-5Clw-Pro-Glu-leu-[Cys(3MeBn)-Apc(DOTA)-Leu-Ile-AET]]

From US20250296971A1, “GASTRIC INHIBITORY PEPTIDE RECEPTOR LIGANDS” (priority 2021, published 2025)
